Numbered stars: 1 amine (or outer) side, 2 acyl side, 3 side chain; on linkers, the order of the positions; unused ones are H or OH. Square brackets hold non-standard residues; d marks the D form. Side chains are listed from the residue outwards. Ends that are not written are not given here. * marks the point of attachment. C18 diacid = O=C(O)CCCCCCCCCCCCCCCCC(=O)*; γGlu = O=C(O)[C@H](CCC(=O)[*:2])N[*:1]; Ac4c = NC1(C(=O)O)CCC1; AEEA = NCCOCCOCC(=O)O; Aib = CC(C)(N)C(=O)O
Assays:
human GLP-1 receptor [1] = target: T1, human GLP-1 receptor (human, UniProt P43220 24-463); assay: cell-based or functional assay
human glucagon receptor [2] = target: T2, human glucagon receptor (human, UniProt P47871 26-477); assay: cell-based or functional assay
human GLP-1 receptor [3] = target: T1, human GLP-1 receptor; assay: displacement of 125I-GLP-1(7-36)NH2, membranes with human GLP-1R, SPA
Experimental: (§1) The receptor binding of each compound to the human GLP-1 receptor was measured in a displacement binding assay. […] Each derivative was added in a series of concentrations to isolated membranes containing the human GLP-1 receptor and displacement of the labelled ligand was monitored. The receptor binding was reported as the concentration at which half of the labelled ligand was displaced from the receptor, the IC₅₀ value.

human glucagon receptor [4] = target: T2, human glucagon receptor; assay: displacement of 125I-glucagon, membranes with human glucagon receptor, SPA
Experimental: as §1, with “human glucagon” for “human GLP-1”, “ligand is” for “ligand was”

T2 sequence (P47871 26-477): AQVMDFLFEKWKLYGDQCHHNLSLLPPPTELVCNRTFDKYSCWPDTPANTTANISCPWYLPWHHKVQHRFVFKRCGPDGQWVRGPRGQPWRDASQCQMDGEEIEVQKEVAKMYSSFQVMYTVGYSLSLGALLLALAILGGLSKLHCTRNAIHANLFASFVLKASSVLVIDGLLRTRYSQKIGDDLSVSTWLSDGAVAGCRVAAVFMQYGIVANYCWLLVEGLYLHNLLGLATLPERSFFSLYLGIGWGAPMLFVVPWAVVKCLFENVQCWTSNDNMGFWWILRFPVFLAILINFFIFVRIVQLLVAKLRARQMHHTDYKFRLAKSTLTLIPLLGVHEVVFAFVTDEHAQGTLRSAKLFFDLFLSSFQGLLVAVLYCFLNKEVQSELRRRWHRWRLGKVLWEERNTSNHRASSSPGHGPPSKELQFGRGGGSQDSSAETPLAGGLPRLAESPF

B1: N^ε28-[(4S)-4-carboxy-4-[[(4S)-4-carboxy-4-[[2-[2-[2-[[2-[2-[2-[[(4S)-4-carboxy-4-(17-carboxyheptadecanoylamino)butanoyl]amino]ethoxy]ethoxy]acetyl]amino]ethoxy … (peptide)
peptide: H[Ac4c]QGTFTSDLSKYLESRRAREFVQWLLK([γGlu-γGlu-AEEA-AEEA-γGlu-C18 diacid])T-NH2
modifications: N-terminus assumed
SMILES: CC(C)C[C@H](NC(=O)[C@H](Cc1ccc(O)cc1)NC(=O)[C@H](CCCCN)NC(=O)[C@H](CO)NC(=O)[C@H](CC(C)C)NC(=O)[C@H](CC(=O)O)NC(=O)[C@H](CO)NC(=O)[C@@H](NC(=O)[C@H](Cc1ccccc1)NC(=O)[C@@H](NC(=O)CNC(=O)[C@H](CCC(N)=O)NC(=O)C1(NC(=O)[C@@H](N)Cc2c[nH]cn2)CCC1)[C@@H](C)O)[C@@H](C)O)C(=O)N[C@@H](CCC(=O)O)C(=O)N[C@@H](CO)C(=O)N[C@@H](CCCNC(=N)N)C(=O)N[C@@H](CCCNC(=N)N)C(=O)N[C@@H](C)C(=O)N[C@@H](CCCNC(=N)N)C(=O)N[C@@H](CCC(=O)O)C(=O)N[C@@H](Cc1ccccc1)C(=O)N[C@H](C(=O)N[C@@H](CCC(N)=O)C(=O)N[C@@H](Cc1c[nH]c2ccccc12)C(=O)N[C@@H](CC(C)C)C(=O)N[C@@H](CC(C)C)C(=O)N[C@@H](CCCCNC(=O)CC[C@H](NC(=O)CC[C@H](NC(=O)COCCOCCNC(=O)COCCOCCNC(=O)CC[C@H](NC(=O)CCCCCCCCCCCCCCCCC(=O)O)C(=O)O)C(=O)O)C(=O)O)C(=O)N[C@H](C(N)=O)[C@@H](C)O)C(C)C
EC50 GLP-1R, CRE luciferase reporter gene assay in BHK cells (human GLP-1 receptor [1]): 0.003 nM | EC50 GlucR, CRE luciferase reporter gene assay in BHK cells (human glucagon receptor [2]): 0.01 nM | IC50 (human GLP-1 receptor [3]): 0.3 nM

B2: N^ε29-[(4S)-4-carboxy-4-[[2-[2-[2-[[2-[2-[2-[[(4S)-4-carboxy-4-[[(4S)-4-carboxy-4-(17-carboxyheptadecanoylamino)butanoyl]amino]butanoyl]amino]ethoxy]ethoxy]acet … (peptide)
peptide: H[Aib]QGTFTSDLSKYLESRRAREFVQWLLKT-NH2
modifications: not fully specified (residue 28)
EC50 GLP-1R, CRE luciferase reporter gene assay in BHK cells (human GLP-1 receptor [1]): 0.0044 nM | EC50 GlucR, CRE luciferase reporter gene assay in BHK cells (human glucagon receptor [2]): 0.0624 nM | IC50 (human GLP-1 receptor [3]): 0.4 nM | IC50 (human glucagon receptor [4]): 6.7 nM

B3: N^ε29-[(4S)-4-carboxy-4-[[(4S)-4-carboxy-4-[[2-[2-[2-[[2-[2-[2-[[(4S)-4-carboxy-4-(17-carboxyheptadecanoylamino)butanoyl]amino]ethoxy]ethoxy]acetyl]amino]ethoxy … (peptide)
peptide: H[Aib]QGTFTSDLSKYLDKKAAREFVAWLLNT-NH2
modifications: not fully specified
IC50 (human GLP-1 receptor [3]): 0.2 nM | IC50 (human glucagon receptor [4]): 53 nM

B4: N^ε28-[(4S)-4-carboxy-4-[[(4S)-4-carboxy-4-[[(2S)-2-[[(2S)-4-carboxy-2-[[(2S)-2-[[(4S)-4-carboxy-4-[[(4S)-4-carboxy-4-(17-carboxyheptadecanoylamino)butanoyl]ami … (peptide)
peptide: H[Aib]QGTFTSDLSKYLESKRAREFVQWLLK([γGlu-γGlu-Ser-Glu-Ser-γGlu-γGlu-C18 diacid])T-NH2
EC50 GLP-1R, CRE luciferase reporter gene assay in BHK cells (human GLP-1 receptor [1]): 0.0027 nM | IC50 (human GLP-1 receptor [3]): 0.2 nM | IC50 (human glucagon receptor [4]): 1.7 nM

B5: N^ε16-[(4S)-4-carboxy-4-[[(4S)-4-carboxy-4-[[2-[2-[2-[[2-[2-[2-[[(4S)-4-carboxy-4-(17-carboxyheptadecanoylamino)butanoyl]amino]ethoxy]ethoxy]acetyl]amino]ethoxy … (peptide)
peptide: H[Aib]QGTFTSDLSKYLDK([γGlu-γGlu-AEEA-AEEA-γGlu-C18 diacid])KRAQEFVQWLLNT-NH2
modifications: N-terminus assumed
SMILES: CC(C)C[C@H](NC(=O)[C@H](Cc1ccc(O)cc1)NC(=O)[C@H](CCCCN)NC(=O)[C@H](CO)NC(=O)[C@H](CC(C)C)NC(=O)[C@H](CC(=O)O)NC(=O)[C@H](CO)NC(=O)[C@@H](NC(=O)[C@H](Cc1ccccc1)NC(=O)[C@@H](NC(=O)CNC(=O)[C@H](CCC(N)=O)NC(=O)C(C)(C)NC(=O)[C@@H](N)Cc1c[nH]cn1)[C@@H](C)O)[C@@H](C)O)C(=O)N[C@@H](CC(=O)O)C(=O)N[C@@H](CCCCNC(=O)CC[C@H](NC(=O)CC[C@H](NC(=O)COCCOCCNC(=O)COCCOCCNC(=O)CC[C@H](NC(=O)CCCCCCCCCCCCCCCCC(=O)O)C(=O)O)C(=O)O)C(=O)O)C(=O)N[C@@H](CCCCN)C(=O)N[C@@H](CCCNC(=N)N)C(=O)N[C@@H](C)C(=O)N[C@@H](CCC(N)=O)C(=O)N[C@@H](CCC(=O)O)C(=O)N[C@@H](Cc1ccccc1)C(=O)N[C@H](C(=O)N[C@@H](CCC(N)=O)C(=O)N[C@@H](Cc1c[nH]c2ccccc12)C(=O)N[C@@H](CC(C)C)C(=O)N[C@@H](CC(C)C)C(=O)N[C@@H](CC(N)=O)C(=O)N[C@H](C(N)=O)[C@@H](C)O)C(C)C
IC50 (human GLP-1 receptor [3]): 2.4 nM | IC50 (human glucagon receptor [4]): 1.1 nM

B6: N^ε28-[(4S)-4-carboxy-4-[[(4S)-4-carboxy-4-[[2-[2-[2-[[2-[2-[2-[[(4S)-4-carboxy-4-(17-carboxyheptadecanoylamino)butanoyl]amino]ethoxy]ethoxy]acetyl]amino]ethoxy … (peptide)
peptide: H[Aib]HGTFTSDLSKYLESRRAREFVQWLLK([γGlu-γGlu-AEEA-AEEA-γGlu-C18 diacid])T-NH2
modifications: N-terminus assumed
SMILES: CC(C)C[C@H](NC(=O)[C@H](Cc1ccc(O)cc1)NC(=O)[C@H](CCCCN)NC(=O)[C@H](CO)NC(=O)[C@H](CC(C)C)NC(=O)[C@H](CC(=O)O)NC(=O)[C@H](CO)NC(=O)[C@@H](NC(=O)[C@H](Cc1ccccc1)NC(=O)[C@@H](NC(=O)CNC(=O)[C@H](Cc1c[nH]cn1)NC(=O)C(C)(C)NC(=O)[C@@H](N)Cc1c[nH]cn1)[C@@H](C)O)[C@@H](C)O)C(=O)N[C@@H](CCC(=O)O)C(=O)N[C@@H](CO)C(=O)N[C@@H](CCCNC(=N)N)C(=O)N[C@@H](CCCNC(=N)N)C(=O)N[C@@H](C)C(=O)N[C@@H](CCCNC(=N)N)C(=O)N[C@@H](CCC(=O)O)C(=O)N[C@@H](Cc1ccccc1)C(=O)N[C@H](C(=O)N[C@@H](CCC(N)=O)C(=O)N[C@@H](Cc1c[nH]c2ccccc12)C(=O)N[C@@H](CC(C)C)C(=O)N[C@@H](CC(C)C)C(=O)N[C@@H](CCCCNC(=O)CC[C@H](NC(=O)CC[C@H](NC(=O)COCCOCCNC(=O)COCCOCCNC(=O)CC[C@H](NC(=O)CCCCCCCCCCCCCCCCC(=O)O)C(=O)O)C(=O)O)C(=O)O)C(=O)N[C@H](C(N)=O)[C@@H](C)O)C(C)C
EC50 GLP-1R, CRE luciferase reporter gene assay in BHK cells (human GLP-1 receptor [1]): 0.0146 nM | EC50 GlucR, CRE luciferase reporter gene assay in BHK cells (human glucagon receptor [2]): 0.0036 nM | IC50 (human GLP-1 receptor [3]): 0.6 nM
